# Laboratory results reported in the RNAGym collection of RNA variant scans (doi:10.1093/molbev/msab373).
# B1: Azoarcus group I ribozyme (parent)
# chain: GUGCCUUGCGCCGGGAAACCACGCAAGGGAUGGUGUCAAAUUCGGCGAAACCUAAGCGCCCGCCCGGGCGUAUGGCAACGCCGAGCCAAGCUUCGGCGCCUGCGCCGAUGAAGGUGUAGAGACUAGACGGCACCCACCUAAGGCAAACGCUAUGGUGAAGGCAUAGUCCAGGGAGUGGCGAAAGUCACACAAACCGG
# Variants of: B1
# Assay: reverse-splicing fitness (ratio to wild type); higher = more active; in vitro selection; Mg2+ level not given
# In short: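 An in vitro group I ribozyme library with randomized positions was T7-transcribed and gel-purified. In triplicate, 10 pmol RNA in EPPS pH 7.5 was reacted with 50 pmoles of a 30-nt RNA substrate for 1 h at 37 °C across several added MgCl2 levels (1–48 mM), then stopped with EDTA. Products were reverse transcribed from a substrate-complementary primer, PCR-amplified and sequenced (HiSeq 4000). Fitness is a variant's read proportion after selection over that before, normalised to wild type.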
row,Variant,reverse-splicing fitness
1,C82A A120C C150G U176A,0.00712
2,C82A A120C C150G U176C,0.0106
3,C82A A120C C150G U176G,0.00347
4,C82A A120G A145G C150A U176A,0.0108
5,C82A A120G A145G C150A U176C,0.0213
6,C82A A120G A145G C150A U176G,0.00779
7,C82A A120G A145C C150U C169G U176A,0.0208
8,C82A A120G A145C C150U C169G U176C,0.0116
9,C82A A120G A145C C150U C169G U176G,0.00468
10,C82A A120G A145C C150G C169A U176C,0.00611
11,C82A A120G A145C C150G C169A U176G,0.00399
12,C82A A120G A145C C150G C169A U176A,0.00899
13,C82A A120C C169G U176C,0.0259
14,C82A A120C C169G U176A,0.0193
15,C82A A120C C169G U176G,0.00508
16,C82A A120C C150U,0.0789
17,C82A A120C C150G,0.0157
18,C82A A120G A145C C150A U176A,0.00995
19,C82A A120G A145C C150A U176G,0.00435
20,C82A A120G A145C C150A U176C,0.00806
21,C82A A120G,0.0258
22,C82A A120C C150G C169A,0.0112
23,C82A A120C C150G C169G,0.00866
24,C82A A120C C150G C169U,0.0104

row,Variant,reverse-splicing fitness
1,C82A A120G A145G C150A C169U U176C,0.0185
2,C82A A120G A145G C150A C169U U176A,0.0211
3,C82A A120G A145G C150A C169U U176G,0.00592
4,C82A A120C C150U C169A U176C,0.0165
5,C82A A120C C150U C169A U176A,0.0201
6,C82A A120C C150U C169A U176G,0.00673
7,C82A A120G A145G C169A,0.0151
8,C82A A120G A145C C169U U176A,0.0217
9,C82A A120G A145C C169U U176C,0.0129
10,C82A A120G A145C C169U U176G,0.00381
11,C82A A120C C150G C169G U176A,0.00779
12,C82A A120C C150G C169G U176C,0.00601
13,C82A A120C C150G C169G U176G,0.00605
14,C82A A120C C150U U176A,0.0246
15,C82A A120C C150U U176G,0.0111
16,C82A A120C C150U U176C,0.0394
17,C82A A120G A145C C150A,0.00678
18,C82A A120G A145C C150U,0.0107
19,C82A A120G A145C C150G,0.0075
20,C82A A120C C150A U176C,0.0248
21,C82A A120C C150A U176G,0.00826
22,C82A A120C C150A U176A,0.0151
23,C82A A120G A145G C150U C169G,0.0197
24,C82A A120G A145G C150U C169U,0.016

row,Variant,reverse-splicing fitness
1,C82A A120G A145G C150U C169A,0.0179
2,C82A A120C C150G C169U U176G,0.00629
3,C82A A120C C150G C169U U176C,0.0113
4,C82A A120C C150G C169U U176A,0.00617
5,C82A A120G A145G C150U C169U U176G,0.00463
6,C82A A120G A145G C150U C169U U176A,0.0182
7,C82A A120G A145G C150U C169U U176C,0.0172
8,C82A A120G A145C C169A U176A,0.00955
9,C82A A120G A145C C169A U176C,0.00741
10,C82A A120G A145C C169A U176G,0.00327
11,C82A A120C C169U U176C,0.0151
12,C82A A120C C169U U176A,0.0172
13,C82A A120C C169U U176G,0.00416
14,C82A A120G A145G C150G,0.00892
15,C82A A120G A145G C150A,0.0101
16,C82A A120G A145G C150U,0.0203
17,C82A A120C U176C,0.056
18,C82A A120C U176G,0.00961
19,C82A A120C U176A,0.04
20,C82A A120G A145C C150A C169G U176G,0.00464
21,C82A A120G A145C C150A C169G U176C,0.0138
22,C82A A120G A145C C150A C169G U176A,0.0238
23,C82A A120C C150U C169G U176G,0.00493
24,C82A A120C C150U C169G U176C,0.0201

row,Variant,reverse-splicing fitness
1,C82A A120C C150U C169G U176A,0.0152
2,C82A A120C C150G C169A U176A,0.0126
3,C82A A120C C150G C169A U176G,0.00817
4,C82A A120C C150G C169A U176C,0.0129
5,C82A A120G A145G C150A C169A U176C,0.023
6,C82A A120G A145G C150A C169A U176G,0.00558
7,C82A A120G A145G C150A C169A U176A,0.0183
8,C82A A120C C150U C169U U176A,0.0167
9,C82A A120C C150U C169U U176G,0.00589
10,C82A A120C C150U C169U U176C,0.0147
11,C82A A120G A145C U176C,0.0111
12,C82A A120G A145C U176A,0.011
13,C82A A120G A145C U176G,0.00396
14,C82A A120G A145C C150A C169G,0.00852
15,C82A A120G A145C C150A C169U,0.00736
16,C82A A120G A145C C150A C169A,0.00694
17,C82A A120G A145C,0.0202
18,C82A A120G A145G,0.0225
19,C82A A120G A145C C150G C169A,0.00915
20,C82A A120G A145C C150G C169U,0.00806
21,C82A A120G A145C C150G C169G,0.00899
22,C82A A120G A145C C169U,0.0141
23,C82A A120G A145C C169A,0.0124
24,C82A A120G A145C C169G,0.0188

row,Variant,reverse-splicing fitness
1,C82A A120G A145C C150G C169U U176C,0.0123
2,C82A A120G A145C C150G C169U U176A,0.0158
3,C82A A120G A145C C150G C169U U176G,0.00438
4,C82A A120G A145G C150G C169U U176A,0.0129
5,C82A A120G A145G C150G C169U U176G,0.00741
6,C82A A120G A145G C150G C169U U176C,0.0123
7,C82A A120G A145G C150U U176A,0.0104
8,C82A A120G A145G C150U U176G,0.00667
9,C82A A120G A145G C150U U176C,0.0178
10,C82A A120G A145C C150U C169A U176G,0.00425
11,C82A A120G A145C C150U C169A U176A,0.0121
12,C82A A120G A145C C150U C169A U176C,0.00527
13,C82A A120G A145C C150G U176A,0.00476
14,C82A A120G A145C C150G U176C,0.00686
15,C82A A120G A145C C150G U176G,0.00304
16,C82A A120G A145G C150A C169U,0.00961
17,C82A A120G A145G C150A C169A,0.0112
18,C82A A120G A145G C150A C169G,0.0104
19,C82A A120C C169A U176A,0.0198
20,C82A A120C C169A U176G,0.00458
21,C82A A120C C169A U176C,0.0229
22,C82A A120G A145C C150U C169G,0.00984
23,C82A A120G A145C C150U C169A,0.00915
24,C82A A120G A145C C150U C169U,0.00958

row,Variant,reverse-splicing fitness
1,C82A A120G A145G C150G U176C,0.011
2,C82A A120G A145G C150G U176G,0.00572
3,C82A A120G A145G C150G U176A,0.00745
4,C82A A120C C150A C169U U176G,0.00644
5,C82A A120C C150U C169A,0.0105
6,C82A A120C C150U C169U,0.0173
7,C82A A120C C150U C169G,0.00925
8,C82A A120G A145G C150G C169U,0.0106
9,C82A A120G A145G C150G C169A,0.01
10,C82A A120G A145G C150G C169G,0.00916
11,C82A A120G A145C C169G U176C,0.0162
12,C82A A120G A145C C169G U176A,0.0259
13,C82A A120G A145C C169G U176G,0.00403
14,C82A A120G A145C C150U U176G,0.0042
15,C82A A120G A145C C150U U176A,0.0106
16,C82A A120G A145C C150U U176C,0.0102
17,C82A A120G A145G C150A C169G U176G,0.00523
18,C82A A120G A145G C150A C169G U176A,0.018
19,C82A A120G A145G C150A C169G U176C,0.0247
20,C82A A120G A145C C150A C169U U176C,0.0107
21,C82A A120G A145C C150A C169U U176G,0.00478
22,C82A A120G A145C C150A C169U U176A,0.0192
23,C82A A120G A145G C150U C169G U176C,0.0199
24,C82A A120G A145G C150U C169G U176G,0.0046

row,Variant,reverse-splicing fitness
1,C82A A120G A145G C150U C169G U176A,0.0149
2,C82A A120C C169U,0.0186
3,C82A A120C C169A,0.0104
4,C82A A120C C169G,0.00961
5,C82A A120G A145G C169A U176A,0.0208
6,C82A A120G A145G C150G C169A U176C,0.0128
7,C82A A120G A145G C150G C169A U176A,0.0138
8,C82A A120G A145G C150G C169A U176G,0.00858
9,C82A A120G A145G C150G C169G U176C,0.0124
10,C82A A120G A145G C150G C169G U176G,0.00587
11,C82A A120G A145G C150G C169G U176A,0.0097
12,C82A A120G A145C C150A C169A U176G,0.00399
13,C82A A120G A145C C150A C169A U176A,0.0126
14,C82A A120G A145C C150A C169A U176C,0.00527
15,C82A A120G A145C C150U C169U U176A,0.0197
16,C82A A120G A145C C150U C169U U176C,0.0106
17,C82A A120G A145C C150U C169U U176G,0.00407
18,C82A A120G A145G C150U C169A U176G,0.00535
19,C82A A120G A145G C150U C169A U176C,0.0196
20,C82A A120G A145G C150U C169A U176A,0.016
21,C82A A120G A145C C150G C169G U176A,0.00918
22,C82A A120G A145C C150G C169G U176C,0.00676
23,C82A A120G A145C C150G C169G U176G,0.00341
